Experimental data as given in article PMC13343975, “A connection between two ancient and essential cellular processes, iron-sulfur protein biogenesis and fatty acid synthesis, in Escherichia coli” (mBio, 2026).

Key:
6His-IscS [1] = molecular target: T1, 6His-IscS (E. coli, UniProt P0A6B7 1-404)
T1 construct: IscS cysteine desulfurase, E. coli; IscS-coding region (primers OSD56/OSD57, start codon to stop codon, 1,248 bp fragment) between EcoRI and XhoI of pET6His-TEV; The vector's name tells a TEV site between the 6His tag and the protein; no cleavage is told; also called pET-6His-TEV-iscS; source: E. coli MG1655(DE3), purified (Ni-nitrilotriacetic acid agarose); not shown: 6His, N-terminal, kept

6His-IscS [2] = molecular target: T1, 6His-IscS; test: native gel or EMSA; 6His-IscS 15 µM with 6His-ACP or variant 30 µM, 20 min at 37°C in 100 mM Hepes, 150 mM NaCl; non-denaturing 12% PAGE, Coomassie Blue; settings: both partners purified

T1 sequence (P0A6B7 whole entry, the tested form may be a part): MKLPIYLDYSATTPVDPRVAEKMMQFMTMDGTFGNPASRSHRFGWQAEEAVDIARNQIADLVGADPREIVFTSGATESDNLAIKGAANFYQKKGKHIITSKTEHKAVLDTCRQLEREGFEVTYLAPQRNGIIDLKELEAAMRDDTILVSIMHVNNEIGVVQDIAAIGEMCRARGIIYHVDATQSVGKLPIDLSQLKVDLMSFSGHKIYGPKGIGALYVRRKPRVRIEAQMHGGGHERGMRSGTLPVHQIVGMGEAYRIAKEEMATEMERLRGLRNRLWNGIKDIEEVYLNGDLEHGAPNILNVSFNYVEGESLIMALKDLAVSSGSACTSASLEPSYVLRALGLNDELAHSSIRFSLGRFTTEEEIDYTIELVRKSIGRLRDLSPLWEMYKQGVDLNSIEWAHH

Molecule: acylated 6His-ACP (from UniProt P0A6A8 1-78) (natural protein)
- cysteine desulfurase activity of IscS (methylene blue assay), relative to IscS alone (6His-IscS [1]): 3 fold

B1: 6His-ACP (natural protein, E. coli, UniProt P0A6A8 1-78, looked up)
chain: MSTIEERVKKIIGEQLGVKQEEVTNNASFVEDLGADSLDTVELVMALEEEFDTEIPDEEAEKITTVQAAIDYINGHQA
modifications: preparation expected to comprise a mixture of apo-ACP, holo-ACP (phosphopantetheine-bound ACP, on Ser36) and a minor fraction of acylated ACP
notes: acyl carrier protein (ACP), E. coli; ACP-coding region (primers OSD146/OSD147, start codon to stop codon, 263 bp fragment) between EcoRI and XhoI of pET6His-TEV; The vector's name tells a TEV site between the 6His tag and the protein; no cleavage is told; also called ACPWT; wild-type ACP; source: E. coli MG1655(DE3), 10 mM pantothenate in the culture, purified (Ni-nitrilotriacetic acid agarose); …
- binding result (6His-IscS [2]): binds
